These results are taken from US20240150440A1 (LUMEN BIOSCIENCE, published 2024).

The term EC50 denotes the midpoint of the concentration-response curve. By IC50 is commonly meant the midpoint of a concentration-inhibition curve.

The target in assay [1] is SARS-CoV-2 Delta Variant spike protein on pseudotyped lentivirus (SARS-CoV-2 Delta variant). The experiment in a line: cell-based or functional assay.
For assay [2], the target named is T1, SARS-CoV-2 spike protein on pseudotyped lentivirus (Wuhan Reference Pseudovirus) (SARS-CoV-2, UniProt P0DTC2 14-1273). The experiment in a line: cell-based or functional assay.
The target in assay [3] is T1, SARS-CoV-2 spike protein on pseudotyped …. The experiment in a line: cell-based or functional assay. This is another data set of the same source.
The target in assay [4] is T2, SARS-CoV-2 Alpha Variant RBD (SARS-CoV-2 Alpha variant).
T2 construct: domain: RBD; coated on ELISA plates
The experiment in a line: ELISA, RBD coated. For orientation: An ELISA detects its analyte on a solid surface through an enzyme-linked reagent.

The target in assay [5] is T3, SARS-CoV-2 Delta Variant RBD (SARS-CoV-2 Delta variant).
T3 construct: domain: RBD; coated on ELISA plates
The experiment in a line: ELISA, RBD coated.

Assay [6] addresses T1, SARS-CoV-2 spike protein on pseudotyped …. The experiment in a line: cell-based or functional assay. The source holds these as a separate data set.
Assay [7] addresses T4, SARS-CoV-2 Gamma Variant RBD (SARS-CoV-2 Gamma variant).
T4 construct: domain: RBD; coated on ELISA plates
The assay is described as follows: ELISA, RBD coated.

For assay [8], the target named is T5, SARS-CoV-2 Beta Variant RBD (SARS-CoV-2 Beta variant).
T5 construct: domain: RBD; coated on ELISA plates
The assay is described as follows: ELISA, RBD coated.

In assay [9] the target is T1, SARS-CoV-2 spike protein on pseudotyped …. The experiment in a line: cell-based or functional assay. This is another data set of the same source.
Assay [10] addresses SARS-CoV-2 Gamma Variant spike protein on pseudotyped lentivirus (SARS-CoV-2 Gamma variant). The assay is described as follows: cell-based or functional assay.
The target of assay [11] is T1, SARS-CoV-2 spike protein on pseudotyped …. The assay is described as follows: cell-based or functional assay. This is another data set of the same source.
The target in assay [12] is T6, recombinant SARS-CoV-2 RBD with C-terminal AviTag (SARS-CoV-2, UniProt P0DTC2 319-541). The assay is described as follows: ELISA, competition with coated ACE2-Fc for RBD [Cont. 5].
The target of assay [13] is T1, SARS-CoV-2 spike protein on pseudotyped …. The experiment in a line: cell-based or functional assay. The source holds these as a separate data set.
The target is the same in assay [14]. The experiment in a line: cell-based or functional assay. The source holds these as a separate data set.
The target of assay [15] is T6, recombinant SARS-CoV-2 RBD with …. The assay is described as follows: ELISA, competition with coated ACE2-Fc for RBD [Cont. 4].

B1: PP1147 MBP-5HVZ-PAPA-R5a-B7-H6 (VHH)
VHH: QVQLVESGGGLVQPGGSLRLSCAASGAFFSYGAIHWFRQAPGKQREEVAAITSGGSTGYADSVKGRFTISRDNAKNTVYLQMNSLKPEDTAVYYCNAGVVWLPSNAAYNLWGQGTQVTVSS
notes: Form: Dimer
On to B1, for which the “Pseudovirus neutralization IC50” value in assay [1] came out at 1.13 nM; in assay [2] it was 12.3 nM. For the same molecule, the “infectivity % under 10 ug/mL VHH treatment” value (from here on “infectivity %”) in assay [3] was determined as 1.79%. The EC50 in [4] came to 0.33 nM; in assay [5], 0.49 nM. In addition, the “Pseudovirus inhibition IC50 [Cont. 6]” value in [6] amounted to 0.44 nM.

B2: PP1103 MBP-5HVZ-PAPA-RN-18-H6 (VHH)
VHH: QVQLVESGGGLVQPGGSLRLSCAASGYYFQIVAMHWYRQAPGKEREGVAGITSTGSTYYGDSVKGRFTISRDNAKNTVYLQMNSLKPEDTAVYYCNAVSTDAQGAAEYWGQGTQVTVSS
notes: Form: Dimer
Turning to B2, in assay [1], the “Pseudovirus neutralization IC50” value came out at 2.49 nM. In [3], the “infectivity %” value is 57.6%. The EC50 in assay [4] stood at 1.45 nM; in assay [5], 2.69 nM; in [7], 92.8 nM; in [8], 227 nM.

B3: PP1149 MBP-5HVZ-PAPA-R5a-E5-H6 (VHH)
VHH: QVQLVESGGGLVQPGGSLRLSCAASGYDFDILRMAWFRQAPGKEREMVAAITSAESVNYEDSVKGRFTISRDNAKNTVYLQMNSLKPEDTAVYYCATYDYTDDYGYASWGQGTQVTVSS
notes: Form: Dimer
With B3, the “Pseudovirus neutralization IC50” value in assay [2] worked out at 37.3 nM. In addition, the “infectivity %” value in [3] came out at 25.5%. Further, the EC50 in assay [4] was found to be 3.01 nM; in assay [7], 134 nM; in assay [8], 58 nM. In [9], the “Pseudovirus inhibition IC50 [Cont. 2]” value was 74.7 nM.

B4: PP1148 MBP-5HVZ-PAPA-R5a-C5-H6 (VHH)
VHH: QVQLVESGGGLVQPGGSLRLSCAASGDIFSINALHWFRQAPGKQREEVAAITSGGSTGYADSVKGRFTISRDNAKNTVYLQMNSLKPEDTAVYYCAAQQARGGLDSDYWGQGTQVTVSS
notes: Form: Dimer
As for B4, the “Pseudovirus neutralization IC50” value in assay [1] was 0.53 nM; in [2], 15.7 nM. In addition, in assay [3], the “infectivity %” value was determined as 5.95%. For the same molecule, the EC50 came out at 0.33 nM in assay [4], 0.22 nM in assay [5], 9.06 nM in assay [7] and 30.5 nM in [8]. Further, the “Pseudovirus inhibition IC50 [Cont. 2]” value in [9] came out at 4.7 nM.

B5: PP1136 MBP-4B0F-PAPA-R5a-C5-H6 (VHH)
VHH: QVQLVESGGGLVQPGGSLRLSCAASGDIFSINALHWFRQAPGKQREEVAAITSGGSTGYADSVKGRFTISRDNAKNTVYLQMNSLKPEDTAVYYCAAQQARGGLDSDYWGQGTQVTVSS
notes: Form: Heptamer
For B5, the “Pseudovirus neutralization IC50” value in [2] is 0.05 nM. Also, the “infectivity %” value in assay [3] was determined as 1.53%. Further, in [9], the “Pseudovirus inhibition IC50 [Cont. 2]” value is 0.35 nM.

B6: PP1146 MBP-5HVZ-PAPA-R2d-D3-H6 (VHH)
VHH: QVQLVESGGGLVQPGGSLRLSCAASGHIFSINNAAWVRQAPGKSREGVATIHSGGGTYYSDSVKGRFTISRDNAKNTVYLQMNSLKPEDTAVYYCNAEVSTGAGSRGRVSDVYWGQGTQVTVSS
notes: Form: Dimer
Turning to B6, the “Pseudovirus neutralization IC50” value in assay [10] worked out at 6.62 nM; in assay [1], 4.17 nM; in assay [2], 36.2 nM. The “infectivity %” value in assay [3] was 32.8%. Besides, the “Pseudovirus inhibition IC50 [Cont. 1]” value in assay [11] worked out at 77 nM.

B7: PP1897 Cerberbody (3-S3b-C8) (other, not shown: large carriers)
chain 1: QVQLVESGGGLVQPGGSLRLSCAASGSIENIERMHWYRQAPGKQRELVAVIDSGGTTRYADSVKGRFTISRDNAKNTVYLQMNSLKPEDTAVYYCAAVWLTNAESTQEYWGQGTQVTVSSHHHHHH
chain 2: QVQLVESGGGLVQPGGSLRLSCAASGSIENIERMHWYRQAPGKQRELVAVIDSGGTTRYADSVKGRFTISRDNAKNTVYLQMNSLKPEDTAVYYCAAVWLTNAESTQEYWGQGTQVTVSSTVILEYAHRLSQDILSDALQQWASHHHHHHHH
B7: the “Pseudovirus neutralization IC50” value in assay [1] is 0.09 nM.

B8: PP848 MBP-R5E-G2-H6 (VHH)
VHH: QVQLVESGGGLVQPGGSLRLSCAASGTIKSINAMHWFRQAPGKAREFVASIGSNGAKSYSDSVKGRFTISRDNAKNTVYLQMNSLKPEDTAVYYCTALITVAESDDYDYWGQGTQVTVSS
notes: Form: Monomer
In the case of B8, the “infectivity %” value in assay [3] was 81.9%. Also, the IC50 in assay [12] came out at 2.1 nM.

B9: PP1143 MBP-5HVZ-PAPA-R2b-D5-H6 (VHH)
VHH: QVQLVESGGGLVQPGGSLRLSCAASGYADEINMVHWYRQAPGKGREFVAAIASGGSTFYADSVKGRFTISRDNAKNTVYLQMNSLKPEDTAVYYCAAIPRPSLSYAHDYAYWGQGTQVTVSS
notes: Form: Dimer
Consider B9, for which the “Pseudovirus neutralization IC50” value in assay [10] is 3.13 nM; in [2], 0.301 nM. Moreover, in assay [3], the “infectivity %” value turned out to be 0.09%. Besides, the “Pseudovirus inhibition IC50” value in [13] stood at 0.6 nM.

B10: PP1131 MBP-4B0F-PAPA-R2b-D5-H6 (VHH)
VHH: QVQLVESGGGLVQPGGSLRLSCAASGYADEINMVHWYRQAPGKGREFVAAIASGGSTFYADSVKGRFTISRDNAKNTVYLQMNSLKPEDTAVYYCAAIPRPSLSYAHDYAYWGQGTQVTVSS
notes: Form: Heptamer
Regarding B10, the “Pseudovirus neutralization IC50” value in [2] stood at 0.93 nM. Besides, in assay [3], the “infectivity %” value was -0.01%. For the same molecule, the “Pseudovirus inhibition IC50” value in assay [13] was found to be 0.89 nM.

B11: PP1155 MPB-scTRP-PAPA-R2b-D5-H6 (VHH)
VHH: QVQLVESGGGLVQPGGSLRLSCAASGYADEINMVHWYRQAPGKGREFVAAIASGGSTFYADSVKGRFTISRDNAKNTVYLQMNSLKPEDTAVYYCAAIPRPSLSYAHDYAYWGQGTQVTVSS
notes: Form: Trimer
For B11, in [2], the “Pseudovirus neutralization IC50” value was 0.634 nM. For the same molecule, the “infectivity %” value in [3] came to 0.01%. In assay [13], the “Pseudovirus inhibition IC50” value was found to be 1.9 nM.

B12: MBP-R2B-D5-H6 (VHH)
VHH: QVQLVESGGGLVQPGGSLRLSCAASGYADEINMVHWYRQAPGKGREFVAAIASGGSTFYADSVKGRFTISRDNAKNTVYLQMNSLKPEDTAVYYCAAIPRPSLSYAHDYAYWGQGTQVTVSS
notes: monomer
With B12, the “Pseudovirus inhibition IC50” value in assay [13] turned out to be 176 nM.

B13: PP847 MBP-R5E-D1-H6 (VHH)
VHH: QVQLVESGGGLVQPGGSLRLSCAASGFEFSTSAMHWYRQAPGKQREWVARITSGGSDNYGDSVKGRFTISRDNAKNTVYLQMNSLKPEDTAVYYCAAYVGTDNYGYDYWGQGTQVTVSS
notes: Form: Monomer
Turning to B13, in assay [3], the “infectivity %” value was 77.1%. Also, the IC50 in assay [12] turned out to be 2.9 nM.

B14: PP1152 MBP-5HVZ-PAPA-R5d-B6-H6 (VHH)
VHH: QVQLVESGGGLVQPGGSLRLSCAASGRILAANIVHWYRQAPGKEREGVAGITSGGGSYYADSVKGRFTISRDNAKNTVYLQMNSLKPEDTAVYYCNALGLGQSSLYRSADPYDSWGQGTQVTVSS
notes: Form: Dimer
With B14, the “Pseudovirus neutralization IC50” value in assay [2] was determined as 3.87 nM. Moreover, in [3], the “infectivity %” value was determined as 4.64%. Also, the “Pseudovirus inhibition IC50 [Cont. 4]” value in assay [14] stood at 0.85 nM.

B15: MBP-5HVZ-R5D-B6-H6 (VHH)
VHH: QVQLVESGGGLVQPGGSLRLSCAASGRILAANIVHWYRQAPGKEREGVAGITSGGGSYYADSVKGRFTISRDNAKNTVYLQMNSLKPEDTAVYYCNALGLGQSSLYRSADPYDSWGQGTQVTVSS
notes: dimer
Turning to B15, the IC50 in [15] came to 15.7 nM. Also, in assay [14], the “Pseudovirus inhibition IC50 [Cont. 4]” value came to 3.26 nM.

B16: PP1151 MBP-5HVZ-PAPA-R5d-B5-H6 (VHH)
VHH: QVQLVESGGGLVQPGGSLRLSCAASGSRDSIVAMHWYRQAPGKGREGVAGITSRWVTYYADSVKGRFTISRDNAKNTVYLQMNSLKPEDTAVYYCNAPVYYDTEWYDIWGQGTQVTVSS
notes: Form: Dimer
In the case of B16, the “Pseudovirus neutralization IC50” value in assay [2] was 15.3 nM. Besides, in [3], the “infectivity %” value stood at 35.6%. Moreover, in assay [14], the “Pseudovirus inhibition IC50 [Cont. 4]” value turned out to be 43.7 nM.

B17: MBP-5HVZ-R5D-B5-H6 (VHH)
VHH: QVQLVESGGGLVQPGGSLRLSCAASGSRDSIVAMHWYRQAPGKGREGVAGITSRWVTYYADSVKGRFTISRDNAKNTVYLQMNSLKPEDTAVYYCNAPVYYDTEWYDIWGQGTQVTVSS
notes: dimer
As for B17, in assay [15], the IC50 came to 53.7 nM. Further, the “Pseudovirus inhibition IC50 [Cont. 4]” value in assay [14] stood at 3.25 nM.

B18: dimeric VHH (VHH-5HVZ-MBP) R2B-E6 (VHH)
VHH: QVQLVESGGGLVQPGGSLRLSCAASGGVTRGNAMAWYRQAPGKQREIVAAIDNGGSHAYGDSVKGRFTISRDNAKNTVYLQMNSLKPEDTAVYYCAVFPDHDSEQASIDRVYWGQGTQVTVSS
Turning to B18, the “Pseudovirus inhibition IC50” value in assay [13] was 358 nM.
